Target: T1, CTCF (UniProt P49711 1-727)
T1 sequence: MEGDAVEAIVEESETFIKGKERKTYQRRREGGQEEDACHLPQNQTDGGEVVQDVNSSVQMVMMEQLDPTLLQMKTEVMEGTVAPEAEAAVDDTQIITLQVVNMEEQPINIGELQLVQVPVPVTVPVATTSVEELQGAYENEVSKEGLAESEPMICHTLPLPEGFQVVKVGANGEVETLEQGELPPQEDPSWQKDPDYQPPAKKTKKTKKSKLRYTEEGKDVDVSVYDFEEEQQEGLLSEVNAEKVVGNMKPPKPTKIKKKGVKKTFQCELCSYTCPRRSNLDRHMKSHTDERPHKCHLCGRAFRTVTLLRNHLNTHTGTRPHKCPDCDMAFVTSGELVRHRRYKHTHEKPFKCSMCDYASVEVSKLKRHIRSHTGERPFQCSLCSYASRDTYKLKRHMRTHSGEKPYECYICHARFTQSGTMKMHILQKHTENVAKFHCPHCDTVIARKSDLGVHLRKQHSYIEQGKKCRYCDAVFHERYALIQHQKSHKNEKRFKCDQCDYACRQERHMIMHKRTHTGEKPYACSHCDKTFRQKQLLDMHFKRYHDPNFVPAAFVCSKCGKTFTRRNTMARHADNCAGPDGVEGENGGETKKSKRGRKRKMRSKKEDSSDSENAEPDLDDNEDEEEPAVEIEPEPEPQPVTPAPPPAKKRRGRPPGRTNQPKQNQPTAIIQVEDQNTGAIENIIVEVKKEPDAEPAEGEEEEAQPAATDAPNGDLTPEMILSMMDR
Test: MST; sonicated salmon sperm DNA competitor (2000 ng); MST: 125 nM DNA, 0-12.5 uM protein, 1X EMSA buffer (from 4X: 100 mM KCl, 20 mM HEPES pH 8.0, 0.2 mM EDTA, 20% glycerol) with 1 mM DTT (fresh), salmon sperm DNA; 60 min on ice
Conditions: protein: recombinant; tags: His; label: 5' FAM (5-carboxyfluorescein) on forward strand; blunt

B1: Wt S13 49-mer (dsDNA)
DNA 1: TTTGTTAATCTTTAGTGGGAACTAGTGGGAGTGCTGTGCCTCGGGTACC
DNA 2: GGTACCCGAGGCACAGCACTCCCACTAGTTCCCACTAAAGATTAACAAA
In the case of B1, the Kd is reported as 4.8 ± 2.3 µM.

— article PMC9876287, “Characterization of a new CCCTC-binding factor binding site as a dual regulator of Epstein-Barr virus latent infection”
